In US20200270325A1 (Merck Sharp & Dohme, published 2020):
Numbered stars: 1 amine (or outer) side, 2 acyl side, 3 side chain; on linkers, the order of the positions; unused ones are H or OH. Square brackets hold non-standard residues; d marks the D form. Side chains are listed from the residue outwards. Ends that are not written are not given here. * marks the point of attachment. Phe(4-CH2NH2) = NCc1ccc(C[C@H](N)C(=O)O)cc1; C18 diacid = O=C(O)CCCCCCCCCCCCCCCCC(=O)*; γGlu = O=C(O)[C@H](CCC(=O)[*:2])N[*:1]; Met(O2) = CS(=O)(=O)CC[C@H](N)C(=O)O; αMeD = C[C@](N)(CC(=O)O)C(=O)O; AEEA = NCCOCCOCC(=O)O; Aib = CC(C)(N)C(=O)O

Tests used:
[1] = target: human GLP-1 receptor (GLP1R) (human, UniProt P43220 24-463); experiment: cell-based or functional assay
[2] = target: human Glucagon receptor (GCGR) (human, UniProt P47871 26-477); experiment: cell-based or functional assay
human Glucagon receptor (GCGR), sequence (P47871 26-477): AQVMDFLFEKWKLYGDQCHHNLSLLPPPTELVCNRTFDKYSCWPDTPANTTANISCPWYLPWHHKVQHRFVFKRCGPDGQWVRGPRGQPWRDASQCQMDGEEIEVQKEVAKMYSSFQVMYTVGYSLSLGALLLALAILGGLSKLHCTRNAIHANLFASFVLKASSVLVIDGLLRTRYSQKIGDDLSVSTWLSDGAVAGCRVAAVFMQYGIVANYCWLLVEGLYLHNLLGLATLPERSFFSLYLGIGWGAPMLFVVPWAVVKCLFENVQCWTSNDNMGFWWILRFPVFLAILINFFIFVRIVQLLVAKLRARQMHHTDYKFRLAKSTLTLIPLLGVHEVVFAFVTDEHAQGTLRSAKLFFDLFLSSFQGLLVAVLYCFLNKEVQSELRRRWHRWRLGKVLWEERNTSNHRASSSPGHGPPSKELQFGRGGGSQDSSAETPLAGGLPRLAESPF

Row | Binder | GLP1R EC50 human [1] | GCGR EC50 human [2]
1 | H[Aib]QGTFTSDYSKYLDARAAQK([AEEA-AEEA-γGlu-C18 diacid])FVQWL[Met(O2)][αMeD]T-NH2 (N-terminus assumed; SMILES CC(C)C[C@H](NC(=O)[C@H](Cc1ccc(O)cc1)NC(=O)[C@H](CCCCN)NC(=O)[C@H](CO)NC(=O)[C@H](Cc1ccc(O)cc1)NC(=O)[C@H](CC(=O)O)NC(=O)[C@H](CO)NC(=O)[C@@H](NC(=O)[C@H](Cc1ccccc1)NC(=O)[C@@H](NC(=O)CNC(=O)[C@H](CCC(N)=O)NC(=O)C(C)(C)NC(=O)[C@@H](N)Cc1c[nH]cn1)[C@@H](C)O)[C@@H](C)O)C(=O)N[C@@H](CC(=O)O)C(=O)N[C@@H](C)C(=O)N[C@@H](CCCNC(=N)N)C(=O)N[C@@H](C)C(=O)N[C@@H](C)C(=O)N[C@@H](CCC(N)=O)C(=O)N[C@@H](CCCCNC(=O)COCCOCCNC(=O)COCCOCCNC(=O)CC[C@H](NC(=O)CCCCCCCCCCCCCCCCC(=O)O)C(=O)O)C(=O)N[C@@H](Cc1ccccc1)C(=O)N[C@H](C(=O)N[C@@H](CCC(N)=O)C(=O)N[C@@H](Cc1c[nH]c2ccccc12)C(=O)N[C@@H](CC(C)C)C(=O)N[C@@H](CCS(C)(=O)=O)C(=O)N[C@@](C)(CC(=O)O)C(=O)N[C@H](C(N)=O)[C@@H](C)O)C(C)C) [TP681] | 0.15 nM | 0.27 nM
2 | H[Aib]QGTFTSDYSKYLD[Aib]RAAQDFVQWLL[Phe(4-CH2NH2)]([AEEA-AEEA-γGlu-C18 diacid])TK-{γGlu-NH2} [TP682] | 2.31 nM | 2.35 nM
3 | H[Aib]QGTFTSDYSKYLDARAAQEFVK([AEEA-AEEA-γGlu-C18 diacid])WL[Met(O2)]DT-NH2 (N-terminus assumed; SMILES CC(C)C[C@H](NC(=O)[C@H](Cc1ccc(O)cc1)NC(=O)[C@H](CCCCN)NC(=O)[C@H](CO)NC(=O)[C@H](Cc1ccc(O)cc1)NC(=O)[C@H](CC(=O)O)NC(=O)[C@H](CO)NC(=O)[C@@H](NC(=O)[C@H](Cc1ccccc1)NC(=O)[C@@H](NC(=O)CNC(=O)[C@H](CCC(N)=O)NC(=O)C(C)(C)NC(=O)[C@@H](N)Cc1c[nH]cn1)[C@@H](C)O)[C@@H](C)O)C(=O)N[C@@H](CC(=O)O)C(=O)N[C@@H](C)C(=O)N[C@@H](CCCNC(=N)N)C(=O)N[C@@H](C)C(=O)N[C@@H](C)C(=O)N[C@@H](CCC(N)=O)C(=O)N[C@@H](CCC(=O)O)C(=O)N[C@@H](Cc1ccccc1)C(=O)N[C@H](C(=O)N[C@@H](CCCCNC(=O)COCCOCCNC(=O)COCCOCCNC(=O)CC[C@H](NC(=O)CCCCCCCCCCCCCCCCC(=O)O)C(=O)O)C(=O)N[C@@H](Cc1c[nH]c2ccccc12)C(=O)N[C@@H](CC(C)C)C(=O)N[C@@H](CCS(C)(=O)=O)C(=O)N[C@@H](CC(=O)O)C(=O)N[C@H](C(N)=O)[C@@H](C)O)C(C)C) [TP702] | 0.27 nM | 0.35 nM
4 | HXQGTFTSDXSKYLDARAAQDFVXWLXDT (D-Ser (s) at 2; pAF(γEγEC16) at 10; K(PEG2PEG2γEC16-OH) at 24; L-methionine sulphone (2) at 27; C-terminal amide) [TP693] | > 4.9 nM | 1.1 nM
5 | H[Aib]QGTFTSEYSKKLDARAAK([AEEA-AEEA-γGlu-C18 diacid])DFVQWL[Met(O2)]DT-NH2 (N-terminus assumed; SMILES CC(C)C[C@H](NC(=O)[C@H](CCCCN)NC(=O)[C@H](CCCCN)NC(=O)[C@H](CO)NC(=O)[C@H](Cc1ccc(O)cc1)NC(=O)[C@H](CCC(=O)O)NC(=O)[C@H](CO)NC(=O)[C@@H](NC(=O)[C@H](Cc1ccccc1)NC(=O)[C@@H](NC(=O)CNC(=O)[C@H](CCC(N)=O)NC(=O)C(C)(C)NC(=O)[C@@H](N)Cc1c[nH]cn1)[C@@H](C)O)[C@@H](C)O)C(=O)N[C@@H](CC(=O)O)C(=O)N[C@@H](C)C(=O)N[C@@H](CCCNC(=N)N)C(=O)N[C@@H](C)C(=O)N[C@@H](C)C(=O)N[C@@H](CCCCNC(=O)COCCOCCNC(=O)COCCOCCNC(=O)CC[C@H](NC(=O)CCCCCCCCCCCCCCCCC(=O)O)C(=O)O)C(=O)N[C@@H](CC(=O)O)C(=O)N[C@@H](Cc1ccccc1)C(=O)N[C@H](C(=O)N[C@@H](CCC(N)=O)C(=O)N[C@@H](Cc1c[nH]c2ccccc12)C(=O)N[C@@H](CC(C)C)C(=O)N[C@@H](CCS(C)(=O)=O)C(=O)N[C@@H](CC(=O)O)C(=O)N[C@H](C(N)=O)[C@@H](C)O)C(C)C) [TP703] | > 19.8 nM | > 19.8 nM
6 | H[Aib]QGTFTSDYSEYLDKRAAQDFVK([AEEA-AEEA-γGlu-C18 diacid])WL[Met(O2)]DT-NH2 (N-terminus assumed; SMILES CC(C)C[C@H](NC(=O)[C@H](Cc1ccc(O)cc1)NC(=O)[C@H](CCC(=O)O)NC(=O)[C@H](CO)NC(=O)[C@H](Cc1ccc(O)cc1)NC(=O)[C@H](CC(=O)O)NC(=O)[C@H](CO)NC(=O)[C@@H](NC(=O)[C@H](Cc1ccccc1)NC(=O)[C@@H](NC(=O)CNC(=O)[C@H](CCC(N)=O)NC(=O)C(C)(C)NC(=O)[C@@H](N)Cc1c[nH]cn1)[C@@H](C)O)[C@@H](C)O)C(=O)N[C@@H](CC(=O)O)C(=O)N[C@@H](CCCCN)C(=O)N[C@@H](CCCNC(=N)N)C(=O)N[C@@H](C)C(=O)N[C@@H](C)C(=O)N[C@@H](CCC(N)=O)C(=O)N[C@@H](CC(=O)O)C(=O)N[C@@H](Cc1ccccc1)C(=O)N[C@H](C(=O)N[C@@H](CCCCNC(=O)COCCOCCNC(=O)COCCOCCNC(=O)CC[C@H](NC(=O)CCCCCCCCCCCCCCCCC(=O)O)C(=O)O)C(=O)N[C@@H](Cc1c[nH]c2ccccc12)C(=O)N[C@@H](CC(C)C)C(=O)N[C@@H](CCS(C)(=O)=O)C(=O)N[C@@H](CC(=O)O)C(=O)N[C@H](C(N)=O)[C@@H](C)O)C(C)C) [TP700] | 0.35 nM | > 4.9 nM
7 | H[Aib]QGTFTSDYSKYLDERAAKDFVK([AEEA-AEEA-γGlu-C18 diacid])WL[Met(O2)]DT-NH2 (N-terminus assumed; SMILES CC(C)C[C@H](NC(=O)[C@H](Cc1ccc(O)cc1)NC(=O)[C@H](CCCCN)NC(=O)[C@H](CO)NC(=O)[C@H](Cc1ccc(O)cc1)NC(=O)[C@H](CC(=O)O)NC(=O)[C@H](CO)NC(=O)[C@@H](NC(=O)[C@H](Cc1ccccc1)NC(=O)[C@@H](NC(=O)CNC(=O)[C@H](CCC(N)=O)NC(=O)C(C)(C)NC(=O)[C@@H](N)Cc1c[nH]cn1)[C@@H](C)O)[C@@H](C)O)C(=O)N[C@@H](CC(=O)O)C(=O)N[C@@H](CCC(=O)O)C(=O)N[C@@H](CCCNC(=N)N)C(=O)N[C@@H](C)C(=O)N[C@@H](C)C(=O)N[C@@H](CCCCN)C(=O)N[C@@H](CC(=O)O)C(=O)N[C@@H](Cc1ccccc1)C(=O)N[C@H](C(=O)N[C@@H](CCCCNC(=O)COCCOCCNC(=O)COCCOCCNC(=O)CC[C@H](NC(=O)CCCCCCCCCCCCCCCCC(=O)O)C(=O)O)C(=O)N[C@@H](Cc1c[nH]c2ccccc12)C(=O)N[C@@H](CC(C)C)C(=O)N[C@@H](CCS(C)(=O)=O)C(=O)N[C@@H](CC(=O)O)C(=O)N[C@H](C(N)=O)[C@@H](C)O)C(C)C) [TP701] | 0.18 nM | > 4.9 nM
8 | H[Aib]QGTFTSDYSKYLDARAAQ[Phe(4-CH2NH2)]([AEEA-AEEA-γGlu-C20‑OH])FVQWLLDT-NH2 [TP585] | 0.566 nM | 1.13 nM
9 | H[Aib]QGTFTSDYSKYLD[Aib]RAAQDFVQWLLK([AEEA-AEEA-γGlu-C18 diacid])TK-{γGlu-NH2} [TP683] | 0.62 nM | 4.97 nM
10 | H[Aib]QGTFTSEYSKKLDARAAQDFVK([AEEA-AEEA-γGlu-C18 diacid])WL[Met(O2)]DT-NH2 (N-terminus assumed; SMILES CC(C)C[C@H](NC(=O)[C@H](CCCCN)NC(=O)[C@H](CCCCN)NC(=O)[C@H](CO)NC(=O)[C@H](Cc1ccc(O)cc1)NC(=O)[C@H](CCC(=O)O)NC(=O)[C@H](CO)NC(=O)[C@@H](NC(=O)[C@H](Cc1ccccc1)NC(=O)[C@@H](NC(=O)CNC(=O)[C@H](CCC(N)=O)NC(=O)C(C)(C)NC(=O)[C@@H](N)Cc1c[nH]cn1)[C@@H](C)O)[C@@H](C)O)C(=O)N[C@@H](CC(=O)O)C(=O)N[C@@H](C)C(=O)N[C@@H](CCCNC(=N)N)C(=O)N[C@@H](C)C(=O)N[C@@H](C)C(=O)N[C@@H](CCC(N)=O)C(=O)N[C@@H](CC(=O)O)C(=O)N[C@@H](Cc1ccccc1)C(=O)N[C@H](C(=O)N[C@@H](CCCCNC(=O)COCCOCCNC(=O)COCCOCCNC(=O)CC[C@H](NC(=O)CCCCCCCCCCCCCCCCC(=O)O)C(=O)O)C(=O)N[C@@H](Cc1c[nH]c2ccccc12)C(=O)N[C@@H](CC(C)C)C(=O)N[C@@H](CCS(C)(=O)=O)C(=O)N[C@@H](CC(=O)O)C(=O)N[C@H](C(N)=O)[C@@H](C)O)C(C)C) [TP699] | > 19.8 nM | > 19.8 nM
